Experimental data as given in publication PMC7721913 (The Journal of Cell Biology, 2020).

Molecular target: KLC1 TPR1-6 fragment (human KNS2 residues 205-501) (human, UniProt Q07866 205-501)
Assay: ITC

Chain of KLC1 TPR1-6 fragment (human KNS2 residues 205-501) (Q07866 205-501): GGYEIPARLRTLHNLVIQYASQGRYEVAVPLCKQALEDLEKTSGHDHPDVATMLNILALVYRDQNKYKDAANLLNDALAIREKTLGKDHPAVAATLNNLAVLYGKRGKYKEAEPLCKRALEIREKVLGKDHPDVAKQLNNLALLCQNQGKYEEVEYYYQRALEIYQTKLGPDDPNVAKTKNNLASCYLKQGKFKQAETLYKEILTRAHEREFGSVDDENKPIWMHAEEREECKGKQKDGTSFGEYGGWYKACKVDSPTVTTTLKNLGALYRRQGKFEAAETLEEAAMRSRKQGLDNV

ESEMEDAYHEHQANLLR [WT SFPQ peptide spanning the Y-acidic motif] was tested, and the Kd was 3.83 ± 2.31 µM, the dH was -2.05 ± 0.438 kcal/mol and the “stoichiometry N” value was 0.964 ± 0.143.
